{
  "source": "paper PMC2735609",
  "about": "(Cellular signalling, 2009)",
  "test_in_all_cases": "radioligand binding",
  "key": {"[1]": {"target": "hLHR(Y546F), on intact HEK293 cells (human, UniProt P22888 27-699, Y546F)", "sequence (P22888 27-699 Y546F)": "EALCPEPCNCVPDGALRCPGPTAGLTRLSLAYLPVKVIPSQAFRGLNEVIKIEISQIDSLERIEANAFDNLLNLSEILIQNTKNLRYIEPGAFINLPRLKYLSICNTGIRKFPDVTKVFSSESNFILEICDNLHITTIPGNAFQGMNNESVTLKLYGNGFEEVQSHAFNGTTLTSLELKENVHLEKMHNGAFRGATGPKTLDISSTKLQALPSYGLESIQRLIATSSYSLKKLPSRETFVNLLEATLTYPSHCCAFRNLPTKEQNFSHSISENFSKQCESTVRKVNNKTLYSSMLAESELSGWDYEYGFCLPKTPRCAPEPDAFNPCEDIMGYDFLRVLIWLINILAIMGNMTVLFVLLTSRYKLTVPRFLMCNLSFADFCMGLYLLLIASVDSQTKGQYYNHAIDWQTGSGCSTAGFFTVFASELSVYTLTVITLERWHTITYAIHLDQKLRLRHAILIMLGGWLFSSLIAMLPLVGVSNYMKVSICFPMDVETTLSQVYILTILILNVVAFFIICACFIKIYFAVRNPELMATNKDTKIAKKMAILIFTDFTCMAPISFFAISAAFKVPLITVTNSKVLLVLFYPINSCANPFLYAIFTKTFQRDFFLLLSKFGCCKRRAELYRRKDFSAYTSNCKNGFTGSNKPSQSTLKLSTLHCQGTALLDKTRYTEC"}, "[2]": {"target": "hLHR(D405N,Y546F), on intact HEK293 cells (human, UniProt P22888 27-699, D405N | Y546F)", "sequence (P22888 27-699 D405N/Y546F)": "as the sequence (P22888 27-699 Y546F) above, with D379N counted along it"}, "[3]": {"target": "hLHR(D405N), on intact HEK293 cells (human, UniProt P22888 27-699, D405N)", "sequence (P22888 27-699 D405N)": "as the sequence (P22888 27-699 Y546F) above, with D379N, F520Y counted along it"}},
  "data": [
    {"binder": "human chorionic gonadotropin (hCG), highly purified recombinant, 125I-labelled (ligand, 125I label (which chain is not stated) | 125I label (which chain is not stated)) chain 1: not shown chain 2: SKEPLRPRCRPINATLAVEKEGCPVCITVNTTICAGYCPTMTRVLQGVLPALPQVVCNYRDVRFESIRLPGCPRGVNPVVSYAVALSCQCALCRRSTTDCGGPKDHPLTCDDPRFQDSSSSKAPPPSLPSPSRLPGPSDTPILPQ", "values": [
      {"measurement": "hCG bound to intact cells", "setting": "[1]", "value": 22.6, "unit": "ng hCG/10^6 cells"},
      {"measurement": "hCG bound to intact cells", "setting": "[2]", "value": 8.7, "unit": "ng hCG/10^6 cells"},
      {"measurement": "hCG bound to intact cells", "setting": "[3]", "value": 20.4, "unit": "ng hCG/10^6 cells"}
    ]}
  ]
}
